We go through one molecule from patent publication US20200325475, “DNA APTAMER […] BINDING TO CFP10, AND USE […]” (MD APTUS INC., published 2020).

One series addresses ESAT6 (UniProt P9WNK7 P9WNK7:1-95). Put plainly: impedance biosensor, 10 pM protein in PBS. The source says: At this time, each protein was mixed at a concentration of 10 pM with PBS and used for detection.
For series [1], the target named is CFP10 (culture filtrate protein 10 kDa) (Mycobacterium tuberculosis H37Rv, UniProt P9WNK5 P9WNK5:1-100). Put plainly: Cy3-aptamer binding to CFP10 on magnetic beads, fluorescence; 20 mM Tris, 50 mM NaCl, 5 mM KCl, 5 mM MgCl2, pH 8.0. The settings on record: tags: His6 tag, expressed from pET32a in E. coli BL21(DE3); label: Cy3 (fluorescence Kd assay). As to the method: 400 pmole of CFP10 was mixed with 10 μL of magnetic beads, and then incubated in 100 μL of a binding buffer (20 mM Tris, 50 mM NaCl, 5 mM KCl, 5 mM MgCl₂, pH 8.0) for 1 hour. To separate unbound CFP10, washing was performed twice with a binding buffer. Subsequently, the resulting mixture was incubated together with various concentrations of a Cy3-labeled aptamer, and an unbound aptamer was removed by washing. The amount of Cy3-labeled ssDNA aptamer bound to the magnetic beads with CFP10 immobilized thereon was measured by fluorescence measurement (1420 Victor Multilabel counter, PerkinElmer, USA) by separating only Cy3-labeled ssDNA bound to CFP10. As a result, as shown in FIG. 3 and Table 2 below, the Kd value of the DNA aptamer having a CG6 base sequence was measured.
CFP10 (culture filtrate protein 10 kDa), sequence (P9WNK5 whole entry, one chain of several): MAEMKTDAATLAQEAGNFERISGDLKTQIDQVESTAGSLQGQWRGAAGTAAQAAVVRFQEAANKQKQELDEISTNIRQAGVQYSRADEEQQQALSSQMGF

ESAT6, sequence (P9WNK7 whole entry, one chain of several): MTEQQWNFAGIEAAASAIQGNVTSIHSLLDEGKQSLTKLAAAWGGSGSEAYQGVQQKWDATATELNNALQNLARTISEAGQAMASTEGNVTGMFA

B1: CG6 (ssDNA)
DNA: CACCTAATACGACTCACTATAGCGGATCCGACCTAGGTTCAGAAGGCTTTCTATTTTCCCGGTGCCTCGCACTGGCTCGAACAAGCTTGC
One may read the Kd as the concentration at which binding is half-saturated. Turning to B1, the binding result in the series with ESAT6 is on record as “no binding”. The dissociation constant (Kd) in series [1] was 92.8 nM.
